Source: patent publication US20200247891A1 (University of California, published 2020)

Biological target: αvβ8 integrin on β8-transfected SW480 cells and β8-transfected SNB-19 cells (UniProt P26012 43-769; P06756 31-1048)
Experiment: cell-based or functional assay

Chain of αvβ8 integrin on β8-transfected SW480 cells and β8-transfected SNB-19 cells (P26012 43-769, chain 1 of 2): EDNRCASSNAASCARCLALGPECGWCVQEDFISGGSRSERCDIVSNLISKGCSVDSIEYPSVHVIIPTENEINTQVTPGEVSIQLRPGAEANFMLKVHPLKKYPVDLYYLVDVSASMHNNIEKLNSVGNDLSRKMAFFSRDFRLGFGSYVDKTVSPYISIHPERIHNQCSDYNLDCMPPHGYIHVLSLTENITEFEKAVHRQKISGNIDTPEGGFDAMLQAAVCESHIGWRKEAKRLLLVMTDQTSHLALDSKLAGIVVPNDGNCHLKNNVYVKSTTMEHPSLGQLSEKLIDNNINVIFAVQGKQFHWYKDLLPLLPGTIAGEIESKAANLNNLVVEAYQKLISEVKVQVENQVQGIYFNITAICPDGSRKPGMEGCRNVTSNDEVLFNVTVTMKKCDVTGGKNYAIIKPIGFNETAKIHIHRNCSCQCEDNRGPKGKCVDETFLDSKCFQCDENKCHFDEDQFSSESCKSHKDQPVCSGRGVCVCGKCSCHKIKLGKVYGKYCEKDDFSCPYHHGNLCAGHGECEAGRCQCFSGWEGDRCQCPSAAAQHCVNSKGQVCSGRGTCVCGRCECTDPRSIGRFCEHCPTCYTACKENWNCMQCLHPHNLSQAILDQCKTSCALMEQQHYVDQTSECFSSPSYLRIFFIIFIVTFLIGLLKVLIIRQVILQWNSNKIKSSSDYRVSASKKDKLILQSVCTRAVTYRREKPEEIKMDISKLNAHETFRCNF
Chain of αvβ8 integrin on β8-transfected SW480 cells and β8-transfected SNB-19 cells (P06756 31-1048, chain 2 of 2): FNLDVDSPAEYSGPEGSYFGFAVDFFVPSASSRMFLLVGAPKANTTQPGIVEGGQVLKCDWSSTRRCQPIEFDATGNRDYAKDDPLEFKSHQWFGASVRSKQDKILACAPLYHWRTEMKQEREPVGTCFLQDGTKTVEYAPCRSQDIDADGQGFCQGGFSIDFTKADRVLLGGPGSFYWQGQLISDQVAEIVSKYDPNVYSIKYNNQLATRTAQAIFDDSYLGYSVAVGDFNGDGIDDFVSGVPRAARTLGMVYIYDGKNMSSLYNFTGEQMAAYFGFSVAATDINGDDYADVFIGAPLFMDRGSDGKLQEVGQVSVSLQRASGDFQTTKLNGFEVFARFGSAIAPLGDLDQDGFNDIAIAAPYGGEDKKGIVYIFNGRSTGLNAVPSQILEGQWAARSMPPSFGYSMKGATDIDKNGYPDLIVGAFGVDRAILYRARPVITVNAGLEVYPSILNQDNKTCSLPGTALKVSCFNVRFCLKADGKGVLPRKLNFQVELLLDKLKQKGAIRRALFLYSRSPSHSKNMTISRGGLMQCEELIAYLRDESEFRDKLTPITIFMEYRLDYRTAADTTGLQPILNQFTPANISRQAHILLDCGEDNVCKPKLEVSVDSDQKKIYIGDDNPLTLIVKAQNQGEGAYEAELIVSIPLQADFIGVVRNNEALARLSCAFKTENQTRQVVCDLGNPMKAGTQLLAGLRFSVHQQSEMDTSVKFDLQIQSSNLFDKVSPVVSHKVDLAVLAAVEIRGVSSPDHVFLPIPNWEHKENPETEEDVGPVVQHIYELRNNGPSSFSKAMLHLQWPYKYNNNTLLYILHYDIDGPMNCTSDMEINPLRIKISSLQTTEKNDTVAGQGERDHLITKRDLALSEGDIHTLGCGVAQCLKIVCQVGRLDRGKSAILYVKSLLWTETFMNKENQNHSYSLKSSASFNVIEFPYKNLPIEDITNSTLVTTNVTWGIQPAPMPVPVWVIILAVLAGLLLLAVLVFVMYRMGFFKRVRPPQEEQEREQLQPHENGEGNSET

IC50 for inhibiting TGFβ activation: < 5 nM
B1: ADWA-11 (antibody, V domains shown)
VH: EVQLQQSGAELVRPGAFVKLSCKASGFNIKDYYMNWVLQRPEQGLEWIGWIDPDNGNTIYDPKFQGKASITADTSSNTAYLQLSSLTSEDTAVYYCARRLLMDYWGQGTSVTVSS
VL: DIVMTQAAPSVPVTPGESVSISCRSTKSLLHFNGNTYLFWFLQRPGQSPQRLIYYMSNLASGVPDRFSGRGSGTDFTLRISRVEAEDVGVYYCMQSLEYPFTFGTGTKLEIK
